Test results reported in US20250129150A1 (APOGEE THERAPEUTICS, published 2025).
Where “and” joins values, the source holds several entries; their conditions need not be identical. Identical values can stand only once.

What was measured:
hIL-13 [1] = target: T1, hIL-13 (human, UniProt P35225 35-146, limits assumed); test: cell-based or functional assay
hIL-13 [2] = target: T1, hIL-13; test: cell-based or functional assay; remark: listed apart in the source
biotinylated hIL-13 = biotinylated hIL-13 (human, UniProt P35225 35-146, limits assumed, biotinylated (site not stated)); test: FACS; blockade of biotinylated hIL-13 (0.05 ug/mL) binding to HEK293 cells expressing hIL-13Rα1/hIL-4Rα
Experimental: Briefly, HEK293 previously transduced to stably express both hIL-13Rα and hIL-4Rα were cultured and harvested. Cells were seeded at 200,000 cells in 100 uL per well. Cells were washed and the supernatant was discarded. […] The cells were stained in this mixture at 4° C. for 1 hour. […] Cells were incubated at 4° C. for 1 hour, protected from light. Cells were then washed and the median fluorescence intensity (MFI) of cells in each well were recorded by FACS using a BD FACSCanto II. Subsequent data were analyzed using GraphPad Prism.

hIL-13 [3] = target: T1, hIL-13; test: cell-based or functional assay; remark: listed apart in the source
hIL-13 [4] = target: T1, hIL-13; test: ELISA
[5] = target: T2, Recombinant Human IL-13 Protein, His Tag (Acro Cat. IL3-H52H4) (human, UniProt P35225 35-146); test: SPR (Biacore 8K), mAb captured on Protein G chip, IL-13 as analyte
T2 construct: Bought protein; also called Hu IL-13; not shown: His Tag
Experimental: (§1) Samples were injected in a multi-cycle manner over freshly captured mAb, by regenerating the capture surfaces with injection of glycine pH 1.5 for 30 sec at a flow rate of 30 μL/min. The data was processed and analyzed with Biacore Insight Evaluation Software Version 2.0.15.12933 (GE Healthcare) as follows. […] The responses from the two buffer blank injections were then subtracted from the reference subtracted data (2-1) to yield double-referenced data, which were fit to an 1:1 binding model to determine the apparent association (ka) and dissociation rate constants (kd). Their ratio provided the apparent equilibrium dissociation constant or affinity constant (KD=kd/ka).

[6] = target: T3, Recombinant Cynomolgus IL-13 Protein, His Tag (SINO BIOLOGICAL, Cat. 11057-C07H) (cynomolgus monkey, UniProt Q5I6E4 19-132 (Macaca thibetana entry)); test: as above
T3 construct: also called Cyno IL-13; cynomolgus monkey IL-13
T3 chain: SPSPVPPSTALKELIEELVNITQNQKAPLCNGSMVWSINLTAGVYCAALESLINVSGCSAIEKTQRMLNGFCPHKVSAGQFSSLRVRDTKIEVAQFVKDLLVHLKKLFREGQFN
Experimental: as §1

hIL-13 [7] = target: T1, hIL-13; test: cell-based or functional assay; remark: listed apart in the source

T1 sequence (P35225 other isoform, or with tags, fused parts or gaps limits assumed): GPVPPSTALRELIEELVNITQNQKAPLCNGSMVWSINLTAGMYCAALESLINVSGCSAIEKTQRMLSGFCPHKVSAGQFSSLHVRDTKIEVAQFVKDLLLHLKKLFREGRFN
T2 sequence (P35225 other isoform, or with tags, fused parts or gaps limits assumed): as above
Chain of biotinylated hIL-13 (P35225 other isoform, or with tags, fused parts or gaps limits assumed): as above

B1: Construct 142 (antibody, human IgG4, kappa)
heavy: EVQLQESGPGLVKPSETLSLTCTVSGFSLNAYSVNWIRQPPGKGLEWLGMIWGDGKIVYNSALKSRLTISKDSSKNQVSLKLSSVTAADTAVYYCAGDGYYPYAMDNWGQGTTVTVSSASTKGPSVFPLAPCSRSTSESTAALGCLVKDYFPEPVTVSWNSGALTSGVHTFPAVLQSSGLYSLSSVVTVPSSSLGTKTYTCNVDHKPSNTKVDKRVESKYGPPCPSCPAPEFLGGPSVFLFPPKPKDTLYITREPEVTCVVVDVSQEDPEVQFNWYVDGVEVHNAKTKPREEQFNSTYRVVSVLTVLHQDWLNGKEYKCKVSNKGLPSSIEKTISKAKGQPREPQVYTLPPSQEEMTKNQVSLTCLVKGFYPSDIAVEWESNGQPENNYKTTPPVLDSDGSFFLYSRLTVDKSRWQEGNVFSCSVMHEALHNHYTQKSLSLSLGK
light: DIQLTQSPSSLSASVGDRVTITCRASKSVDSYGNSFMHWYQQKPGKAPKLLIYLASELESGVPSRFSGSGSGTDFTLTISSLQPEDFATYYCQQNNEDPRTFGGGTKVEIKRTVAAPSVFIFPPSDEQLKSGTASVVCLLNNFYPREAKVQWKVDNALQSGNSQESVTEQDSKDSTYSLSSTLTLSKADYEKHKVYACEVTHQGLSSPVTKSFNRGEC
notes: also called HC1; LC6_m8
With B1 the “pSTAT6 Inhibition IC50 (HT-29 cells)” value (hIL-13 [1]) was 0.29 nM, the “TF-1 Proliferation Inhibition IC50” value (hIL-13 [2]) was 0.2 nM and the IC50 (biotinylated hIL-13) was 0.77 nM. For the same binder, the “TARC Inhibition IC50 (A549 cells)” value (hIL-13 [3]) was 0.92 nM, the Kd (hIL-13 [4]) was 0.054 nM and the Kd [5] was 0.108 nM. The Kd [6] was 0.326 nM.

B2: Construct 15 (antibody, human IgG1, kappa)
heavy: EVQLQESGPGLVKPSETLSLTCTVSGFSLNAYSVNWIRQPPGKGLEWLGMIWGDGKIVYNSALKSRLTISKDSSKNQVSLKLSSVTAADTAVYYCAGDGYYPYAMDNWGQGTTVTVSSASTKGPSVFPLAPSSKSTSGGTAALGCLVKDYFPEPVTVSWNSGALTSGVHTFPAVLQSSGLYSLSSVVTVPSSSLGTQTYICNVNHKPSNTKVDKKVEPKSCDKTHTCPPCPAPELAGAPSVFLFPPKPKDTLYITREPEVTCVVVDVSHEDPEVKFNWYVDGVEVHNAKTKPREEQYNSTYRVVSVLTVLHQDWLNGKEYKCKVSNKALPAPIEKTISKAKGQPREPQVYTLPPSRDELTKNQVSLTCLVKGFYPSDIAVEWESNGQPENNYKTTPPVLDSDGSFFLYSKLTVDKSRWQQGNVFSCSVMHEALHNHYTQKSLSLSPG
light: DIQLTQSPSSLSASVGDRVTITCRASKSVDSYGNSFMHWYQQKPGKAPKLLIYLASNLESGVPSRFSGSGSGTDFTLTISSLQPEDFATYYCQQNNEDPRTFGGGTKVEIKRTVAAPSVFIFPPSDEQLKSGTASVVCLLNNFYPREAKVQWKVDNALQSGNSQESVTEQDSKDSTYSLSSTLTLSKADYEKHKVYACEVTHQGLSSPVTKSFNRGEC
With B2 the “TARC Release IC50 (A549 cells)” value (hIL-13 [7]) was 0.9 nM.

B3: Construct 19 (antibody, human IgG1, kappa)
heavy: EVQLLESGGGLVQPGGSLRLSCAASGFSLNAYSVNWVRQAPGKGLEWLGMIWGDGKIVYNSALKSRLTISKDSSKNTVYLQMNSLRAEDTAVYYCAGDGYYPYAMDNWGQGTTVTVSSASTKGPSVFPLAPSSKSTSGGTAALGCLVKDYFPEPVTVSWNSGALTSGVHTFPAVLQSSGLYSLSSVVTVPSSSLGTQTYICNVNHKPSNTKVDKKVEPKSCDKTHTCPPCPAPELAGAPSVFLFPPKPKDTLYITREPEVTCVVVDVSHEDPEVKFNWYVDGVEVHNAKTKPREEQYNSTYRVVSVLTVLHQDWLNGKEYKCKVSNKALPAPIEKTISKAKGQPREPQVYTLPPSRDELTKNQVSLTCLVKGFYPSDIAVEWESNGQPENNYKTTPPVLDSDGSFFLYSKLTVDKSRWQQGNVFSCSVMHEALHNHYTQKSLSLSPG
light: DIQLTQSPSSLSASVGDRVTITCRASKSVDSYGNSFMHWYQQKPGKAPKLLIYLASNLESGVPSRFSGSGSGTDFTLTISSLQPEDFATYYCQQNNEDPRTFGGGTKVEIKRTVAAPSVFIFPPSDEQLKSGTASVVCLLNNFYPREAKVQWKVDNALQSGNSQESVTEQDSKDSTYSLSSTLTLSKADYEKHKVYACEVTHQGLSSPVTKSFNRGEC
In the case of B3, the “TARC Release IC50 (A549 cells)” value (hIL-13 [7]) is reported as 1.1 nM and 1 nM.

B4: Construct 2 (antibody, human IgG1, kappa)
heavy: QVTLRESGPALVKPTQTLTLTCTVSGFSLSAYSVNWIRQPPGKALEWLAMIWGDGKIVYNSALKSRLTISKDTSKNQVVLTMTNMDPVDTATYYCAGDGYYPYAMDNWGQGSLVTVSSASTKGPSVFPLAPSSKSTSGGTAALGCLVKDYFPEPVTVSWNSGALTSGVHTFPAVLQSSGLYSLSSVVTVPSSSLGTQTYICNVNHKPSNTKVDKKVEPKSCDKTHTCPPCPAPELAGAPSVFLFPPKPKDTLYITREPEVTCVVVDVSHEDPEVKFNWYVDGVEVHNAKTKPREEQYNSTYRVVSVLTVLHQDWLNGKEYKCKVSNKALPAPIEKTISKAKGQPREPQVYTLPPSRDELTKNQVSLTCLVKGFYPSDIAVEWESNGQPENNYKTTPPVLDSDGSFFLYSKLTVDKSRWQQGNVFSCSVMHEALHNHYTQKSLSLSPG
light: DIVMTQSPDSLSVSLGERATINCRASKSVDSYGNSFMHWYQQKPGQPPKLLIYLASNLESGVPDRFSGSGSGTDFTLTISSLQAEDVAVYYCQQNNEDPRTFGGGTKVEIKRTVAAPSVFIFPPSDEQLKSGTASVVCLLNNFYPREAKVQWKVDNALQSGNSQESVTEQDSKDSTYSLSSTLTLSKADYEKHKVYACEVTHQGLSSPVTKSFNRGEC
For B4, the “TARC Release IC50 (A549 cells)” value (hIL-13 [7]) was 0.9 nM.

B5: Construct 130 (antibody, human IgG1, kappa, L234A L235A)
heavy: QVTLRESGPALVKPTQTLTLTCTVSGFSLSAYSVNWIRQPPGKALEWLAMIWGDGKIVYNSALKSRLTISKDTSKNQVVLTMTNMDPVDTATYYCAGDGYYPYAMDNWGQGSLVTVSSASTKGPSVFPLAPSSKSTSGGTAALGCLVKDYFPEPVTVSWNSGALTSGVHTFPAVLQSSGLYSLSSVVTVPSSSLGTQTYICNVNHKPSNTKVDKKVEPKSCDKTHTCPPCPAPEAAGGPSVFLFPPKPKDTLYITREPEVTCVVVDVSHEDPEVKFNWYVDGVEVHNAKTKPREEQYNSTYRVVSVLTVLHQDWLNGKEYKCKVSNKALPAPIEKTISKAKGQPREPQVYTLPPSRDELTKNQVSLTCLVKGFYPSDIAVEWESNGQPENNYKTTPPVLDSDGSFFLYSKLTVDKSRWQQGNVFSCSVMHEALHNHYTQKSLSLSPG
light: DIVMTQSPDSLSVSLGERATINCRASKSVDSYGNSFMHWYQQKPGQPPKLLIYLASNLESGVPDRFSGSGSGTDFTLTISSLQAEDVAVYYCQQNNEDPRTFGGGTKVEIKRTVAAPSVFIFPPSDEQLKSGTASVVCLLNNFYPREAKVQWKVDNALQSGNSQESVTEQDSKDSTYSLSSTLTLSKADYEKHKVYACEVTHQGLSSPVTKSFNRGEC
notes: also called Lebrikizumab-HC; Lebrikizumab-LC
In the case of B5, the “pSTAT6 Inhibition IC50 (HT-29 cells)” value (hIL-13 [1]) is reported as 0.28 nM, the “TF-1 Proliferation Inhibition IC50” value (hIL-13 [2]) is reported as 0.15 nM and the IC50 (biotinylated hIL-13) is reported as 1.05 nM. The “TARC Inhibition IC50 (A549 cells)” value (hIL-13 [3]) was 1 nM, the Kd (hIL-13 [4]) was 0.027 nM and the Kd [5] was 0.112 nM. For the same binder, the Kd [6] was 0.227 nM.

B6: Construct 129 (antibody, human IgG4, kappa)
heavy: QVTLRESGPALVKPTQTLTLTCTVSGFSLSAYSVNWIRQPPGKALEWLAMIWGDGKIVYNSALKSRLTISKDTSKNQVVLTMTNMDPVDTATYYCAGDGYYPYAMDNWGQGSLVTVSSASTKGPSVFPLAPCSRSTSESTAALGCLVKDYFPEPVTVSWNSGALTSGVHTFPAVLQSSGLYSLSSVVTVPSSSLGTKTYTCNVDHKPSNTKVDKRVESKYGPPCPSCPAPEFLGGPSVFLFPPKPKDTLMISRTPEVTCVVVDVSQEDPEVQFNWYVDGVEVHNAKTKPREEQFNSTYRVVSVLTVLHQDWLNGKEYKCKVSNKGLPSSIEKTISKAKGQPREPQVYTLPPSQEEMTKNQVSLTCLVKGFYPSDIAVEWESNGQPENNYKTTPPVLDSDGSFFLYSRLTVDKSRWQEGNVFSCSVLHEALHSYTQKSLSLSLGK
light: DIVMTQSPDSLSVSLGERATINCRASKSVDSYGNSFMHWYQQKPGQPPKLLIYLASNLESGVPDRFSGSGSGTDFTLTISSLQAEDVAVYYCQQNNEDPRTFGGGTKVEIKRTVAAPSVFIFPPSDEQLKSGTASVVCLLNNFYPREAKVQWKVDNALQSGNSQESVTEQDSKDSTYSLSSTLTLSKADYEKHKVYACEVTHQGLSSPVTKSFNRGEC
notes: as for B5
In the case of B6, the “pSTAT6 Inhibition IC50 (HT-29 cells)” value (hIL-13 [1]) is reported as 0.33 nM, the “TF-1 Proliferation Inhibition IC50” value (hIL-13 [2]) is reported as 0.21 nM and the IC50 (biotinylated hIL-13) is reported as 0.71 nM. The “TARC Inhibition IC50 (A549 cells)” value (hIL-13 [3]) was 0.92 nM, the Kd (hIL-13 [4]) was 0.036 nM and the Kd [5] was 0.239 nM. The Kd [6] was 0.882 nM.

B7: Construct 131 (antibody, human IgG1, kappa, L234A L235A)
heavy: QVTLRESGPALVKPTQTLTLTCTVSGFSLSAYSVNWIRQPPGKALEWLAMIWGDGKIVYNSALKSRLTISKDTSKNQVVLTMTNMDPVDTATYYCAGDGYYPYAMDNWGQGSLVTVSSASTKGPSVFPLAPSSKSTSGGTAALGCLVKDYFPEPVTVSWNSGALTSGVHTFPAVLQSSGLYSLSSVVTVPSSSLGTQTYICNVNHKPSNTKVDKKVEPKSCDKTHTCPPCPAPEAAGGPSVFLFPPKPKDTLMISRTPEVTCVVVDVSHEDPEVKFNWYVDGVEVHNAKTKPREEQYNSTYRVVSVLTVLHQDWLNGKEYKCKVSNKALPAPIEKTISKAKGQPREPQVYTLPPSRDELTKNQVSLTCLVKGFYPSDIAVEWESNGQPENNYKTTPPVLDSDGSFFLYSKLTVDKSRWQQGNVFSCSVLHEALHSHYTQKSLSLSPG
light: DIVMTQSPDSLSVSLGERATINCRASKSVDSYGNSFMHWYQQKPGQPPKLLIYLASNLESGVPDRFSGSGSGTDFTLTISSLQAEDVAVYYCQQNNEDPRTFGGGTKVEIKRTVAAPSVFIFPPSDEQLKSGTASVVCLLNNFYPREAKVQWKVDNALQSGNSQESVTEQDSKDSTYSLSSTLTLSKADYEKHKVYACEVTHQGLSSPVTKSFNRGEC
notes: as for B5
With B7 the “pSTAT6 Inhibition IC50 (HT-29 cells)” value (hIL-13 [1]) was 0.22 nM, the “TF-1 Proliferation Inhibition IC50” value (hIL-13 [2]) was 0.13 nM and the IC50 (biotinylated hIL-13) was 0.79 nM. The “TARC Inhibition IC50 (A549 cells)” value (hIL-13 [3]) was 0.99 nM, the Kd (hIL-13 [4]) was 0.019 nM and the Kd [5] was 0.0756 nM. For the same binder, the Kd [6] was 0.123 nM.
